The numbers were not newly measured in paper PMC8900292, which cites them from elsewhere.

This data set concerns the target VAMP2 juxtamembrane LD (UniProt P63027).
Chain of UniProt P63027 (P63027 whole entry, looked up): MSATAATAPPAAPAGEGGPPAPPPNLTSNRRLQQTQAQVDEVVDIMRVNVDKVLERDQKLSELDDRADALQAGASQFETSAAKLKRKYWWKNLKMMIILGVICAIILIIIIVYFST

For the substance Munc13-1 MUN (from UniProt Q62768), the Kd is 10 µM.

By Kd is commonly meant a measure of binding affinity in units of concentration.
